Molecular target: CtBP2-Gluc-N / CtBP2-Gluc-C (CtBP-Gluc-PCA reporter) (human) (UniProt P56545)
Test: split reporter (BiFC, NanoBiT); Gluc-PCA in 293 cells co-transfected with the Gluc-N and Gluc-C fusions, luminance read; MTOB treatment gave a dose-dependent reduction of the signal

## CtBP2-Gluc-N / CtBP2-Gluc-C (CtBP-Gluc-PCA reporter), P56545 1-445 (natural protein; other documents disagree on this pair)
  fold lower Gluc-PCA signal than the Zip-Zip dimer: 10 fold
